Values of other authors, collected in article PMC9456110.
Where two headings read alike, the source gives them in different places. Each block holds one substance with its values, some of them ahead of it.

Legend:
[1] = biological target: Calmodulin (Homo sapiens) (UniProt P0DP23)
[2] = biological target: Calmodulin (Homo sapiens) (UniProt P0DP23); remark: listed apart in the source
[3] = biological target: Calmodulin (Homo sapiens) (UniProt P0DP23); remark: listed apart in the source
[4] = biological target: PIP (Homo sapiens) (UniProt P12273)
UniProt P12273, sequence (P12273 29-146): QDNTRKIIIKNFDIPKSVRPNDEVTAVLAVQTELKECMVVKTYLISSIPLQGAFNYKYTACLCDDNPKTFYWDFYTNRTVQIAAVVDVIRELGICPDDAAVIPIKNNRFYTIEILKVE

[5] = biological target: Calmodulin (Homo sapiens) (UniProt P0DP23); remark: listed apart in the source
[6] = biological target: Calmodulin (Homo sapiens) (UniProt P0DP23); remark: listed apart in the source

Substance: AQP4 N-terminus (from UniProt P55087)
Kd [3]: 3.4 µM

Substance: AQP6 N-terminus (from UniProt Q8C4A0)
Kd [5]: 0.79 µM

Substance: AQP6 N-terminus (from UniProt Q13520)
Kd [6]: 1.78 µM

Next, values leading:

Kd [1]: 29 µM
Substance: AQP4 (from UniProt P55087)

Kd [2]: 3.6 µM
Substance: AQP4 C-terminus (from UniProt P55087)

Kd [4]: 0.57 µM
Substance: AQP5 C-terminus (from UniProt P55064)
